How the values were obtained:
[1] = target: Arkadia 119 aa polypeptide (human) (UniProt Q6ZNA4); assay: ITC; Microcal PEAQ ITC, 25 °C; 75-200 uM Arkadia polypeptide in the cell, 0.75-2 mM UBCH5B from the syringe in 2 uL injections; single site-binding model
[2] = target: Arkadia RING 68 aa (human) (UniProt Q6ZNA4); assay: as above
Chain of Arkadia RING 68 aa (human) (Q6ZNA4 927-994): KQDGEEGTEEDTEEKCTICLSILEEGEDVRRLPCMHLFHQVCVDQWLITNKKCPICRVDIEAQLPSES

Chain of UBCH5B (P62837 whole entry): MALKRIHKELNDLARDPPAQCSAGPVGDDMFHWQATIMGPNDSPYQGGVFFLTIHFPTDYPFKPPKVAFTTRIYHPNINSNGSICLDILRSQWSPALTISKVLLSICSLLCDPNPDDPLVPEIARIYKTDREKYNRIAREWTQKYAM
Chain of Arkadia 119 aa polypeptide (human) (Q6ZNA4 876-994): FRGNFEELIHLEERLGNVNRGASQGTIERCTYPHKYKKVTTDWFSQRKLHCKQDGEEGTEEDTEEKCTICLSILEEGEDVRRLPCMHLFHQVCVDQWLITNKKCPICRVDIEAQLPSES

UBCH5B (from UniProt P62837 1-147) (enzyme)
dH [1]: -4.7 kcal/mol | stoichiometry N [1]: 0.6 | dH [2]: 3.1 kcal/mol | stoichiometry N [2]: 1

Source: publication PMC9501438
